Source: PMC3859580, “The PS1 Hairpin of Mcm3 Is Essential for Viability and for DNA Unwinding In Vitro” (PLoS ONE, 2013)

B1: Mcm3 (wild type), subunit of Saccharomyces cerevisiae Mcm2-7 (natural protein, S. cerevisiae, UniProt P24279 1-971, looked up)
chain: MEGSTGFDGDATTFFAPDAVFGDRVRRFQEFLDTFTSYRDSVRSIQVYNSNNAANYNDDQDDADERDLLGDDDGDDLEKEKKAASSTSLNILPHRIIISLDDLREFDRSFWSGILVEPAYFIPPAEKALTDLADSMDDVPHPNASAVSSRHPWKLSFKGSFGAHALSPRTLTAQHLNKLVSVEGIVTKTSLVRPKLIRSVHYAAKTGRFHYRDYTDATTTLTTRIPTPAIYPTEDTEGNKLTTEYGYSTFIDHQRITVQEMPEMAPAGQLPRSIDVILDDDLVDKTKPGDRVNVVGVFKSLGAGGMNQSNSNTLIGFKTLILGNTVYPLHARSTGVAARQMLTDFDIRNINKLSKKKDIFDILSQSLAPSIYGHDHIKKAILLMLMGGVEKNLENGSHLRGDINILMVGDPSTAKSQLLRFVLNTASLAIATTGRGSSGVGLTAAVTTDRETGERRLEAGAMVLADRGVVCIDEFDKMTDVDRVAIHEVMEQQTVTIAKAGIHTTLNARCSVIAAANPVFGQYDVNRDPHQNIALPDSLLSRFDLLFVVTDDINEIRDRSISEHVLRTHRYLPPGYLEGEPVRERLNLSLAVGEDADINPEEHSNSGAGVENEGEDDEDHVFEKFNPLLQAGAKLAKNKGNYNGTEIPKLVTIPFLRKYVQYAKERVIPQLTQEAINVIVKNYTDLRNDDNTKKSPITARTLETLIRLATAHAKVRLSKTVNKVDAKVAANLLRFALLGEDIGNDIDEEESEYEEALSKRSPQKSPKKRQRVRQPASNSGSPIKSTPRRSTASSVNATPSSARRILRFQDDEQNAGEDDNDIMSPLPADEEAELQRRLQLGLRVSPRRREHLHAPEEGSSGPLTEVGTPRLPNVSSAGQDDEQQQSVISFDNVEPGTISTGRLSLISGIIARLMQTEIFEEESYPVASLFERINEELPEEEKFSAQEYLAGLKIMSDRNNLMVADDKVWRV
notes: source: E. coli, purified, reconstituted into Mcm2-7 as described [27]
B2: Mcm3_(K499A), Mcm3 with the PS1 hairpin mutation (natural protein, S. cerevisiae, UniProt P24279 1-971, looked up)
chain: MEGSTGFDGDATTFFAPDAVFGDRVRRFQEFLDTFTSYRDSVRSIQVYNSNNAANYNDDQDDADERDLLGDDDGDDLEKEKKAASSTSLNILPHRIIISLDDLREFDRSFWSGILVEPAYFIPPAEKALTDLADSMDDVPHPNASAVSSRHPWKLSFKGSFGAHALSPRTLTAQHLNKLVSVEGIVTKTSLVRPKLIRSVHYAAKTGRFHYRDYTDATTTLTTRIPTPAIYPTEDTEGNKLTTEYGYSTFIDHQRITVQEMPEMAPAGQLPRSIDVILDDDLVDKTKPGDRVNVVGVFKSLGAGGMNQSNSNTLIGFKTLILGNTVYPLHARSTGVAARQMLTDFDIRNINKLSKKKDIFDILSQSLAPSIYGHDHIKKAILLMLMGGVEKNLENGSHLRGDINILMVGDPSTAKSQLLRFVLNTASLAIATTGRGSSGVGLTAAVTTDRETGERRLEAGAMVLADRGVVCIDEFDKMTDVDRVAIHEVMEQQTVTIAAAGIHTTLNARCSVIAAANPVFGQYDVNRDPHQNIALPDSLLSRFDLLFVVTDDINEIRDRSISEHVLRTHRYLPPGYLEGEPVRERLNLSLAVGEDADINPEEHSNSGAGVENEGEDDEDHVFEKFNPLLQAGAKLAKNKGNYNGTEIPKLVTIPFLRKYVQYAKERVIPQLTQEAINVIVKNYTDLRNDDNTKKSPITARTLETLIRLATAHAKVRLSKTVNKVDAKVAANLLRFALLGEDIGNDIDEEESEYEEALSKRSPQKSPKKRQRVRQPASNSGSPIKSTPRRSTASSVNATPSSARRILRFQDDEQNAGEDDNDIMSPLPADEEAELQRRLQLGLRVSPRRREHLHAPEEGSSGPLTEVGTPRLPNVSSAGQDDEQQQSVISFDNVEPGTISTGRLSLISGIIARLMQTEIFEEESYPVASLFERINEELPEEEKFSAQEYLAGLKIMSDRNNLMVADDKVWRV
notes: Mcm3, S. cerevisiae, K499A; NdeI-SacI fragment of mcm3_(K499A)-YCplac111 in pET24a (pMD466); also called the Mcm3 subunit of Mcm2-7_(3K499A); source: E. coli BL21 DE3 Codon+, purified (ammonium sulfate, Q Sepharose, ssDNA-Sepharose, MonoQ, MonoS)

Assays:
Experiment in all cases: SEC; individual purified Mcm subunits mixed in equal molar ratios to reconstitute the hexameric complex; elution from a gel filtration column, fractions analysed by SDS-PAGE
Settings in all cases: both partners purified
[1] = target: T1, Mcm6, subunit of Saccharomyces cerevisiae Mcm2-7 (S. cerevisiae, UniProt P53091 1-1017)
T1 construct: Mcm6, S. cerevisiae, recombinant subunit; source: E. coli, purified, reconstituted into Mcm2-7 as described [27]
T1 sequence (P53091 whole entry): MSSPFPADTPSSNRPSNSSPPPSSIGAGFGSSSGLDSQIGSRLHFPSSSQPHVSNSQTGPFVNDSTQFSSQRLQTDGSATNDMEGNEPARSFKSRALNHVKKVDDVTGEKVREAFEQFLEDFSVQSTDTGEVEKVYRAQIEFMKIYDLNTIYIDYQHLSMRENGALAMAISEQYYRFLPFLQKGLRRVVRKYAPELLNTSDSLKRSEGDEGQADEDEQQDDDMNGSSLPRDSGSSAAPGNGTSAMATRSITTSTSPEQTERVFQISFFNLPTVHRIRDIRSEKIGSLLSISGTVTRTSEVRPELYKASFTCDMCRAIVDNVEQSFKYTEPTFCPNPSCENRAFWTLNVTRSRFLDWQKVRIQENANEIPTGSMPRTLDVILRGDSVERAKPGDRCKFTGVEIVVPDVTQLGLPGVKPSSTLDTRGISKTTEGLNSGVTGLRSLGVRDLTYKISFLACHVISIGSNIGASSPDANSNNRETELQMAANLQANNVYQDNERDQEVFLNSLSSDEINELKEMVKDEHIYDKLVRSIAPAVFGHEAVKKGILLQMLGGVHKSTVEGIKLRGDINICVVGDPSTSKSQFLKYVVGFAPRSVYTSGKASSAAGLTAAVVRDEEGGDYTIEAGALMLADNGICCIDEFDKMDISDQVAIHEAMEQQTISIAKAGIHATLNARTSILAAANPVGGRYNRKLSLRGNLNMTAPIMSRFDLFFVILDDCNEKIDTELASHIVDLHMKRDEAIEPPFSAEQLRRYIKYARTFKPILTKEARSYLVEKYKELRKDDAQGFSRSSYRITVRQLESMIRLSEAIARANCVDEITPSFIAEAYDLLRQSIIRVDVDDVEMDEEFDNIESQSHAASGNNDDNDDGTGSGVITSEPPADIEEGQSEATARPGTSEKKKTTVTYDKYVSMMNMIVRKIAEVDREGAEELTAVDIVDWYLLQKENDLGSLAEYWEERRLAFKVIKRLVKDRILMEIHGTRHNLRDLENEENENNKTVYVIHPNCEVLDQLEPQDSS

[2] = target: B2
[3] = target: B1

Row | binding result [1] | binding result [2] | binding result [3] | Binder
1 | binds |  |  | B1
2 |  | binds | binds | Mcm4, subunit of Saccharomyces cerevisiae Mcm2-7 (natural protein, S. cerevisiae, UniProt P30665 1-933, looked up, Mcm4, S. cerevisiae, recombinant subunit; source: E. coli, purified, reconstituted into Mcm2-7 as described [27]) MSQQSSSPTKEDNNSSSPVVPNPDSVPPQLSSPALFYSSSSSQGDIYGRNNSQNLSQGEGNIRAAIGSSPLNFPSSSQRQNSDVFQSQGRQGRIRSSASASGRSRYHSDLRSDRALPTSSSSLGRNGQNRVHMRRNDIHTSDLSSPRRIVDFDTRSGVNTLDTSSSSAPPSEASEPLRIIWGTNVSIQECTTNFRNFLMSFKYKFRKILDEREEFINNTTDEELYYIKQLNEMRELGTSNLNLDARNLLAYKQTEDLYHQLLNYPQEVISIMDQTIKDCMVSLIVDNNLDYDLDEIETKFYKVRPYNVGSCKGMRELNPNDIDKLINLKGLVLRSTPVIPDMKVAFFKCNVCDHTMAVEIDRGVIQEPARCERIDCNEPNSMSLIHNRCSFADKQVIKLQETPDFVPDGQTPHSISLCVYDELVDSCRAGDRIEVTGTFRSIPIRANSRQRVLKSLYKTYVDVVHVKKVSDKRLDVDTSTIEQELMQNKVDHNEVEEVRQITDQDLAKIREVAAREDLYSLLARSIAPSIYELEDVKKGILLQLFGGTNKTFTKGGRYRGDINILLCGDPSTSKSQILQYVHKITPRGVYTSGKGSSAVGLTAYITRDVDTKQLVLESGALVLSDGGVCCIDEFDKMSDSTRSVLHEVMEQQTISIAKAGIITTLNARSSILASANPIGSRYNPNLPVTENIDLPPPLLSRFDLVYLVLDKVDEKNDRELAKHLTNLYLEDKPEHISQDDVLPVEFLTMYISYAKEHIHPIITEAAKTELVRAYVGMRKMGDDSRSDEKRITATTRQLESMIRLAEAHAKMKLKNVVELEDVQEAVRLIRSAIKDYATDPKTGKIDMNLVQTGKSVIQRKLQEDLSREIMNVLKDQASDSMSFNELIKQINEHSQDRVESSDIQEALSRLQQEDKVIVLGEGVRRSVRLNNRV
3 |  | binds | binds | Mcm7, subunit of Saccharomyces cerevisiae Mcm2-7 (natural protein, S. cerevisiae, UniProt P38132 1-845, looked up, Mcm7, S. cerevisiae, recombinant subunit; source: E. coli, purified, reconstituted into Mcm2-7 as described [27]) MSAALPSIQLPVDYNNLFNEITDFLVTFKQDTLSSDATRNENEDENLDAENIEQHLLEKGPKYMAMLQKVANRELNSVIIDLDDILQYQNEKFLQGTQADDLVSAIQQNANHFTELFCRAIDNNMPLPTKEIDYKDDVLDVILNQRRLRNERMLSDRTNEIRSENLMDTTMDPPSSMNDALREVVEDETELFPPNLTRRYFLYFKPLSQNCARRYRKKAISSKPLSVRQIKGDFLGQLITVRGIITRVSDVKPAVEVIAYTCDQCGYEVFQEVNSRTFTPLSECTSEECSQNQTKGQLFMSTRASKFSAFQECKIQELSQQVPVGHIPRSLNIHVNGTLVRSLSPGDIVDVTGIFLPAPYTGFKALKAGLLTETYLEAQFVRQHKKKFASFSLTSDVEERVMELITSGDVYNRLAKSIAPEIYGNLDVKKALLLLLVGGVDKRVGDGMKIRGDINVCLMGDPGVAKSQLLKAICKISPRGVYTTGKGSSGVGLTAAVMKDPVTDEMILEGGALVLADNGICCIDEFDKMDESDRTAIHEVMEQQTISISKAGINTTLNARTSILAAANPLYGRYNPRLSPLDNINLPAALLSRFDILFLMLDIPSRDDDEKLAEHVTYVHMHNKQPDLDFTPVEPSKMREYIAYAKTKRPVMSEAVNDYVVQAYIRLRQDSKREMDSKFSFGQATPRTLLGIIRLSQALAKLRLADMVDIDDVEEALRLVRVSKESLYQETNKSKEDESPTTKIFTIIKKMLQETGKNTLSYENIVKTVRLRGFTMLQLSNCIQEYSYLNVWHLINEGNTLKFVDDGTMDTDQEDSLVSTPKLAPQTTASANVSAQDSDIDLQDA
4 | binds |  |  | B2
5 |  | binds | binds | Mcm2, subunit of Saccharomyces cerevisiae Mcm2-7 (natural protein, S. cerevisiae, UniProt P29469 1-868, looked up, Mcm2, S. cerevisiae, recombinant subunit; source: E. coli, purified, reconstituted into Mcm2-7 as described [27]) MSDNRRRRREEDDSDSENELPPSSPQQHFRGGMNPVSSPIGSPDMINPEGDDNEVDDVPDIDEVEEQMNEVDLMDDNMYEDYAADHNRDRYDPDQVDDREQQELSLSERRRIDAQLNERDRLLRNVAYIDDEDEEQEGAAQLDEMGLPVQRRRRRRQYEDLENSDDDLLSDMDIDPLREELTLESLSNVKANSYSEWITQPNVSRTIARELKSFLLEYTDETGRSVYGARIRTLGEMNSESLEVNYRHLAESKAILALFLAKCPEEMLKIFDLVAMEATELHYPDYARIHSEIHVRISDFPTIYSLRELRESNLSSLVRVTGVVTRRTGVFPQLKYVKFNCLKCGSILGPFFQDSNEEIRISFCTNCKSKGPFRVNGEKTVYRNYQRVTLQEAPGTVPPGRLPRHREVILLADLVDVSKPGEEVEVTGIYKNNYDGNLNAKNGFPVFATIIEANSIKRREGNTANEGEEGLDVFSWTEEEEREFRKISRDRGIIDKIISSMAPSIYGHRDIKTAVACSLFGGVPKNVNGKHSIRGDINVLLLGDPGTAKSQILKYVEKTAHRAVFATGQGASAVGLTASVRKDPITKEWTLEGGALVLADKGVCLIDEFDKMNDQDRTSIHEAMEQQSISISKAGIVTTLQARCSIIAAANPNGGRYNSTLPLAQNVSLTEPILSRFDILCVVRDLVDEEADERLATFVVDSHVRSHPENDEDREGEELKNNGESAIEQGEDEINEQLNARQRRLQRQRKKEEEISPIPQELLMKYIHYARTKIYPKLHQMDMDKVSRVYADLRRESISTGSFPITVRHLESILRIAESFAKMRLSEFVSSYDLDRAIKVVVDSFVDAQKVSVRRQLRRSFAIYTLGH
